# B1: TPR t1 (parent)
# chain: GACCAAUCUGCCCUCAGAGCUCGAGAACAUCUUCGGAUGCAGAGGAGGCAGGCUUCGGUGGCGCGAUAGCGCCAACGUCCUCAACCUCCAAUGCAUCCCACCACAUGAUGAUGCCUGAAGAGCCUUGGUUUUUUG
# Variants of: B1
# Assay: polymerase ribozyme fitness, log enrichment relative to wild type (log ratio); higher = more active; in vitro selection for triplet polymerase activity
# In short: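 Each subunit of a heterodimeric triplet polymerase ribozyme was represented by a PCR-built, transcribed mutant library that underwent triplicate single-round in vitro selection with frozen incubation at −7 °C. Extended constructs were recovered by gel excision, streptavidin-bead capture and RT-PCR, and Illumina sequencing of input and output libraries kept genotypes with ≥10 input reads and ≥1 read per output. Fitness is the logarithm of genotype enrichment relative to wild-type enrichment, from inverse-variance-weighted replicate averages, with a logarithm base of 2.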
row,Variant,polymerase ribozyme fitness (log ratio)
1,GACCAAUCUGCCCUCAGAGCUCGAGAACAUCUUCGGAUGCAGACGAGGCAGGCUUCGGUGGCGCGAUAGCACCAACGUCCUUCACCUCCAAUGCAUCCCACCACAUGAUGAUGCCUGAAGAGCCUUGGUUUUUUG [G44C G71A C82U A83C],-2.53
2,GACCAAUCUGCCCUCAGAGCUCGAGAACAUCUUCGGAUGCAGACGAGGCAGGCUUCGGUGGCGCGAUAGCGCCAACGUCCUCAACCUCCAAUGCAUCCCACAACAUGAUGAUGCCUGAAGAGCCUUGGUUUUUUG [G44C C102A],-3.4
3,GACCAAUCUGCCCUCAGAGCUCGAGAACAUCUUCGGAUGCAGACGAGGCAGGCUUCGGUGGCGCGAUAGCGCAAACGUCCUCAACCUCCAAUGCAUCCCACCACAUGAUGAUGCUUGAAGAGCCUUGGUUUUUUG [G44C C73A C115U],-2.64
4,GACCAAUCUGCCCUCAGAGCUCGAGAACAUCUUCGGAUGCAGAUGGGGCAGGCUUCGGUGGUGCGAUAGCGCCAACGUCCUCAACCUCCAAUGGAUCCCACCACAUGAUGAUGCCUGAAGAGCCUUGGUUUUUUG [G44U A46G C62U C94G],-4.05
5,GACCAAUCUGCCCUCAGAGCUCGAGAACAUCUUCGGAUGCAGACGAGGCAGGCUUCGGUGGCGCGAUAGCGCCAACGUCCUCAACCUCCAAUGCAUCCCACCACAUGAUGAUGCCUGAAGAACCUUGGUUUUUUG [G44C G122A],-1.4
6,GACCAAUCUGCCCUCAGAGCUCGAGAACAUCUUCGGAUGCAGACGAGGCAGGCAUCGGUGGCGUGAUAGCGCCAACGUCCUUAACCUCCAAUGCAUCCCACCACAUGAUGAUGGCUGAAGAGCCUUGGUUUUUUG [G44C U54A C64U C82U C114G],-4.69
7,GACCAAUCUGCCCUCAGAGCUCGAGAACAUCUUCGGAUGCAGACGAGGCAGGCUUCGGUGGCGCGAUAGCGCCAACGUCCUCAACCGCCAAUGCAUCCCACCACAUGAUGAUGCCUGAAGAGCCUUGGUUUUUUG [G44C U87G],-0.724
8,GACCAAUCUGCCCUCAGAGCUCGAGAACAUCUUCGGAUGCAGACGAGGCAGGCUUCGGUGGCGCGAUAGCGUCAACGGCCUCAACCUCCAAUGCAUCCCACCACAUGAUGAUGCGUGAAGAGCCUUGGUUUUGUG [G44C C72U U78G C115G U133G],-1.84
9,GACCAAUCUGCCCUCAGAGCUCGAGAACAUCUUCGGAUGCAGACGAGGCAGGCUUCGGUGGCACGAUAGCGCCAACGUCCUCAACCUCCAAUGCAUCCCACCACAUGAUGAUGCCUGAAGGGCCUUGGUUUUUUG [G44C G63A A121G],0.865
10,GACCAAUCUGCCCUCAGAGCUCGAGAACAUCUUCGGAUGCAGAUGAGGCAGGCUUCGGUGGCGCGAUAGCGCCAACGUCCUCAACCUCCAAUGCUUCCCACCACAUGAUGAUGCCUCAAGAGCCUUGGUUUUUUG [G44U A95U G117C],-4.64
11,GACCAAUCUGCCCUCAGAGCUCGAGAACAUCUUCGGAUGCAGACGAGGCAGGUUUCGGUGGCGCGAUAGCGCCAAUGUCCUCAACCUCCAAUGCAUCCCACCACAUGAUGAUGCCUGAAGAGCCUUGGUUUUUUG [G44C C53U C76U],-1.48
12,GACCAAUCUGCCCUCAGAGCUCGAGAACAUCUUCGGAUGCAGAUGAGGCUGGCUUCGGUGGCGCGAUAGCGCCAACGUCCUCAACCUCCAAUGCAUCCCAACACAUGAUGAUGCAUGAAGAGCCUUGGUUUUUUG [G44U A50U C101A C115A],-2.8
13,GACCAAUCUGCCCUCAGAGCUCGAGAACAUCUUCGGAUGCAGACGAGGCAGGCUUCGGUGACGCGAUAGCGCCAACGUCCUCACCCUCCAAUGCAUCCCACCACAUGAUGAUGCCUGAAGAGCCUUGGUUUUUUG [G44C G61A A84C],-0.524
14,GACCAAUCUGCCCUCAGAGCUCGAGAACAUCUUCGGAUGCAGAUGAGGCAGGCUUCGGUGGCGCGAUAGCGCCUACGUCCUCAACCUACAAUGCAUCCCACCACAUGAUGAUGCCUGAAGAGCCUUGGUUUUGUG [G44U A74U C88A U133G],-2.41
15,GACCAAUCUGCCCUCAGAGCUCGAGAACAUCUUCGGAUGCAGACGAGUCAGGAUUCGGUGCCGCGAUAGCGCCAACGUCCUCAACCUCCAAUGCAUCCCACCACAUGAUGAGGCCUGAAGAGCCUUGGUUUUUUG [G44C G48U C53A G61C U112G],-6.03
16,GACCAAUCUGCCCUCAGAGCUCGAGAACAUCUUCGGAUGCAGAUGAGGCAGGCUUCGGUGGCGCGAUAGCGCCAACGUCCUCAACCUCCAAUGCGUCCUACCACAUGAUGAUGCCUGAAGAGCCUUGGUUUUUUG [G44U A95G C99U],-4.84
17,GACCAAUCUGCCCUCAGAGCUCGAGAACAUCUUCGGAUGCAGACGAGGCAGGCUUCGGUGGCGCGAUAUCGCCAACGUCCUCAACCUCCAAUGCAUCCCACCACAUGAUGAUGCCUGAAGCGCCUUGGUUUUUUG [G44C G69U A121C],1.9
18,GACCAAUCUGCCCUCAGAGCUCGAGAACAUCUUCGGAUGCAGACGAGGCAGGCUUCGGUGGCGCGAUAGCGCCAACGUCCUCAACCUCCAAUGCAUCCCACCACAUGAUGAUGCCUGAAGAGCCAUGGUUUUUUG [G44C U125A],-1.22
19,GACCAAUCUGCCCUCAGAGCUCGAGAACAUCUUCGGAUGCAGACGAGGCAGGCAUCGGUGUCGCGAUAGCGCCAACGUCCUCAAUCACCAAUGCAUCCCACAACAUGAUGAUGCCUGAAGAGCCUUGGUUUUUUG [G44C U54A G61U C85U U87A C102A],-4.76
20,GACCAAUCUGCCCUCAGAGCUCGAGAACAUCUUCGGAUGCAGACGAGGCAGGCUUCGGUGGCGCGAUAGCGCCAACGUCCUCAACCUUCAAUGCAUCCCACCACAUGAUGAUGCCUGAAGAGCCUUGGUUUUUUG [G44C C88U],-0.458
21,GACCAAUCUGCCCUCAGAGCUCGAGAACAUCUUCGGAUGCAGACGAGGCAGGCUUCGGUGGCGCGAUAGCGCCAACGUCCUCAACCUCCAAGGCAUCCCACCACAUGAUGACGCCUGAAGAGCCUUGGUUUUUUG [G44C U92G U112C],-0.938

row,Variant,polymerase ribozyme fitness (log ratio)
1,GACCAAUCUGCCCUCAGAGCUCGAGAACAUCUUCGGAUGCAGAUGAGGCUGGCUUCGGUGGCGCGAUAGCGCCAACGUCCUCAACCUCCAAUGCAUCCCACCACAUGAUGAUGCCUGAAGAGCCUUGGUUUUUUG [G44U A50U],-2.28
2,GACCAAUCUGCCCUCAGAGCUCGAGAACAUCUUCGGAUGCAGACGAGGCAGGCUUUGGUGGCGCGAUAGCGCCAACGUACUCAACCUCCAAUGCAUCCCAUCACAUGAUGAUGCCUGAAGAGCCUUGGUUUUUUG [G44C C56U C79A C101U],-2.56
3,GACCAAUCUGCCCUCAGAGCUCGAGAACAUCUUCGGAUGCAGACGAGGCAGGCUUCGGUGGCGCGAUAGCGCCAAUGACCUCAACCUCCAAUGCAUCCCACCACAUGAUGAUGCCUGAAGAGCCUUGGUUUUUUG [G44C C76U U78A],-1.08
4,GACCAAUCUGCCCUCAGAGCUCGAGAACAUCUUCGGAUGCAGACGAGGCAGGCUUCGGCGGCGCGAUAGCGCCAACGUCCUCAACCUCCAAUGCAUCCCACCACAUGAUGAUGCCUGAAGAGCCUUGGUUUUUUG [G44C U59C],-1.09
5,GACCAAUCUGCCCUCAGAGCUCGAGAACAUCUUCGGAUGCAGACGAGGCAGGCUUCGGUGGCGCGAUAGCGCCAACGUCCUCAACCUCCAAUGCAUCCCACGACAUGCUGAUGGCUGAAGAACCUUGGUUUUUUG [G44C C102G A108C C114G G122A],-6.67
6,GACCAAUCUGCCCUCAGAGCUCGAGAACAUCUUCGGAUGCAGACGAGGCAGGCUUCGGUGGCGCGAUAGCGCCAACGUCCUCAACCUCCAAUGCAUCCCACCACAUGAUGAUGCCUGAAGAGCCUUGGUUUUUUU [G44C G135U],-1.88
7,GACCAAUCUGCCCUCAGAGCUCGAGAACAUCUUCGGAUGCAGACGAGGCAGGCUUCGGUGGCGCGAUAGCGCCAACGUCCUCAACCUCCAAUGCAUCCCACCACAUGAUGAUGCCUGAAGAGCCUUAGUGUUUUG [G44C G127A U130G],-2.95
8,GACCAAUCUGCCCUCAGAGCUCGAGAACAUCUUCGGAUGCAGACGAGGCAGGCUUCGGUGGCGCGAUAGCGCCAACGUCCUCAACCUCCAAUGCAUCCCACCACAGGAUGAUGCCUGAAGAGCGUUGGUUUUUUA [G44C U106G C124G G135A],-0.579
9,GACCAAUCUGCCCUCAGAGCUCGAGAACAUCUUCGGAUGCAGACGAGGCAGGCUUCGGUGGCGCGAUAGCGCUAACGUCCUCAACCUCCAAUGCAUCCCACCACAUGAUGAUGCCUGAAGAGCCUUGGUUUUUUG [G44C C73U],-0.621
10,GACCAAUCUGCCCUCAGAGCUCGAGAACAUCUUCGGAUGCAGAUGGGGCAGGCUUCGGUGGCGCGAUAGCGCCAACGUCCUCAACCUCCAAUGCAUCCCACCACAUGAUGAUGCCUAAAGAGCUUUGGUUUUUUG [G44U A46G G117A C124U],-1.75
11,GACCAAUCUGCCCUCAGAGCUCGAGAACAUCUUCGGAUGCAGACGAGGCAGGCUUCGGUGGCGCGAUAGCGCCAACGUCCUCAACCUCCAAUGCAUCCUACCACAUGAUAAUGCCUGAAGAGCCUUGGUUUUUUG [G44C C99U G110A],-6.64
12,GACCAAUCUGCCCUCAGAGCUCGAGAACAUCUUCGGAUGCAGAUGAGGCAGGCUUCGGUGGCGCGAUAGCGCCAACGUCCUCAACCUCCGAUGCAUCCCACCACAUGAUGAUGCCUGAAGAGCCUUGGUUUCUUG [G44U A90G U132C],-0.625
13,GACCAAUCUGCCCUCAGAGCUCGAGAACAUCUUCGGAUGCAGAUGAGGCAGGCUUCGGUGGCGCGAUGGCGCCAACGUCCUCAAACUCCAAUGCAUCCCACCACAUGAUGAUGCCUGAAGAGCCUUGGUUUUUUG [G44U A68G C85A],-5.43
14,GACCAAUCUGCCCUCAGAGCUCGAGAACAUCUUCGGAUGCAGACGAGGCAGGCUUCGGUGGCGCGAUAGCGCCAACGUCCUCAACCUCCAAUGCAUCCCACCACAUGAUGAGGCCUGAAUAGCCUUCGUUUUUUG [G44C U112G G120U G127C],-5.08
15,GACCAAUCUGCCCUCAGAGCUCGAGAACAUCUUCGGAUGCAGACGAGGCAGGCUUCGGUGGCGCGAUAGCGCCAACGUCCUCAACCUCCAAUGCAUCCCAACACAUGAUGAUGCCUGAAGAGCCUUGGUUUUUUG [G44C C101A],-1.76
16,GACCAAUCUGCCCUCAGAGCUCGAGAACAUCUUCGGAUGCAGACGAGGCAGGCUUCGGUGGCCCGAUAGCGCCAACGUCCUCAACCUCCAGUGCAUCCCACCACAUGAUGAUGCCUGAAGAGCCUUGGUUUUUUG [G44C G63C A91G],-2.62
17,GACCAAUCUGCCCUCAGAGCUCGAGAACAUCUUCGGAUGCAGACGAGGCAGGCUUCGGUGGCGCGAUAGCGCCAACGUCCUCAACCUCCAAUUCAUCCCACCACAUGAUGAUGCCUGAAGAGCCUUGGUUUUUUG [G44C G93U],-2.85
18,GACCAAUCUGCCCUCAGAGCUCGAGAACAUCUUCGGAUGCAGACGAGGCAGGCUUCGGUGGCGCGAUAGCGCCAACGUCCUCAACCUCCAAUACAUCCCACCACAUGAUGAUGCCUGAAGAGCCUUGGUUUUUUG [G44C G93A],-0.685
19,GACCAAUCUGCCCUCAGAGCUCGAGAACAUCUUCGGAUGCAGACGAGGCAGGCUUCGGUGGCGCGAUAUCGCCAACGCCCUCAACCUCCAAUGCUUCCCAUCACAUGAUGAUGCCUGAAGAGCCUUGGUUUUUUG [G44C G69U U78C A95U C101U],-0.81
20,GACCAAUCUGCCCUCAGAGCUCGAGAACAUCUUCGGAUGCAGACGAGGCAGGCUUCGGUGGCUCGAUAGCGCCAACGUUCUCAACCUCCAAUGCAUCCCACCACAUGAUGAUGCCUGAAGAGCCUUGGUUUUUUG [G44C G63U C79U],-1.08
21,GACCAAUCUGCCCUCAGAGCUCGAGAACAUCUUCGGAUGCAGAUGCGGCAGGCUUCGGUGGCGCGAUAGCGCCAACGUCCUCAACCUCCAAUGCAUCCCACCACAUGAUGAUGCCUGAAGAGCCUUGGUUUUUUG [G44U A46C],-2.3

# From the RNAGym collection of RNA variant scans (doi:10.1073/pnas.2313332121)
